{
  "source": "patent CN112125972A",
  "about": "(SINOCELLTECH LTD, dated 2020)",
  "binders": {"B1": {"name": "HPV 16 R001 (antibody, V domains shown)", "VH": "QSVKESEGRLVTPGTPLTLTCTASGFTMSRYHMTWVRQAPGKGLEWIGIIYARNSDTYYANWAKGRFTISKTSTTVDLKITSPTIEDTATYFCARVDSDSSGAFDRLDLWGQGTLVTVSS", "VL": "DPMLTQTAASVEVAVGGTVTIKCQASQSIGGYLSWYQQKPGQRPKLLIYRASTLASGVPSRFKGSGSGTEYTLTFSGVECADAAAYYCQQGYTSSDINNAFGGGTEVVVK", "notes": "An HRP-labelled form served as detection antibody in the sandwich ELISA; also called HPV16.001; 单克隆抗体HPV 16 R001"}},
  "key": {"[1]": {"molecular_target": "T1, HPV11 VLP (Human papillomavirus type 11, UniProt P04012 1-501)", "T1 construct": "also called HPV11完整VLP蛋白", "T1 sequence": "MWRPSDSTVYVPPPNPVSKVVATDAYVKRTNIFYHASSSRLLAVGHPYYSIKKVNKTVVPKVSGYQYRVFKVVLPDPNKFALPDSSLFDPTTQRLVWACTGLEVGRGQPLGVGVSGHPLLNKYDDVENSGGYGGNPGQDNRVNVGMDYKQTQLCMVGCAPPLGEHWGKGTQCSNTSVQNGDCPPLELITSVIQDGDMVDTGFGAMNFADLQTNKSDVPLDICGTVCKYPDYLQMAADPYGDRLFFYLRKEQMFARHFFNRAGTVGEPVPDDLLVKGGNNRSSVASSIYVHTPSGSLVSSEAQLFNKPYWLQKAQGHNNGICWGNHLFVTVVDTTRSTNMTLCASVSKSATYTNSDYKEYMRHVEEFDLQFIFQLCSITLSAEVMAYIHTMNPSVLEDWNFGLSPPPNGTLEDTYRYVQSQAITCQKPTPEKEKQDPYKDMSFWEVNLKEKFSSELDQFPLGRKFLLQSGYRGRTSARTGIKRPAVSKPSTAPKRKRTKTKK", "assay": "indirect ELISA, VLP coated at 2 μg/mL, antibody at 10 ng/mL"}, "[2]": {"molecular_target": "T2, HPV31 VLP (Human papillomavirus type 31, UniProt P17388 1-504)", "T2 construct": "also called HPV31完整VLP蛋白", "T2 sequence": "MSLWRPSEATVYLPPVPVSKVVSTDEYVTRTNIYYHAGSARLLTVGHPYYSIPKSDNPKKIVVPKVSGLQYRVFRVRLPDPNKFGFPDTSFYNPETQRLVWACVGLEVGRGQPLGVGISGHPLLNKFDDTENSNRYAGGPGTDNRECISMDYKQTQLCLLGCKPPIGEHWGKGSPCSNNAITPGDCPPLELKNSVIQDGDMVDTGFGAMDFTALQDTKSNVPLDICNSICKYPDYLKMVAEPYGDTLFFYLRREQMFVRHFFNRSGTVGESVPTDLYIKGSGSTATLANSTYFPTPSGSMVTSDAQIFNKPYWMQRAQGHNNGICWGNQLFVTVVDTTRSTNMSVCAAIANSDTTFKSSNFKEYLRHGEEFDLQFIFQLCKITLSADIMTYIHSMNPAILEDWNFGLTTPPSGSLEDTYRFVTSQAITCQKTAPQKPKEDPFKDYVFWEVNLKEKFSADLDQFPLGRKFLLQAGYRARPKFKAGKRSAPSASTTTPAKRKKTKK", "assay": "indirect ELISA, VLP coated at 2 μg/mL, antibody at 10 ng/mL"}, "[3]": {"molecular_target": "T3, HPV18 VLP (Human papillomavirus type 18, UniProt P06794 62-568)", "T3 construct": "also called HPV18完整VLP蛋白", "T3 sequence": "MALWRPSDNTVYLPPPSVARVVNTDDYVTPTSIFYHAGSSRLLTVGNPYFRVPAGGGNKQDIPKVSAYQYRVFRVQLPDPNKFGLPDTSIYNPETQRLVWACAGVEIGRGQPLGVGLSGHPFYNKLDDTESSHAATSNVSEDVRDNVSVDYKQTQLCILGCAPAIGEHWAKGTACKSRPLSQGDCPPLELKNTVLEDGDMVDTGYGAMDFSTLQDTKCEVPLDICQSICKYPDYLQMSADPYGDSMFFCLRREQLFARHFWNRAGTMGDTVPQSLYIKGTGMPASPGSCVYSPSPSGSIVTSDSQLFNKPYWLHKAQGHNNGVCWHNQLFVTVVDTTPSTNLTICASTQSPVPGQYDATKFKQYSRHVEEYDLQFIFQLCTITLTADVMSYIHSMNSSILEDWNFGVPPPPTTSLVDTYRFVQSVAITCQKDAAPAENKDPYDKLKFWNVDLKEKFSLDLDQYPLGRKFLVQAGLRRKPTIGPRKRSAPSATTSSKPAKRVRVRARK", "assay": "indirect ELISA, VLP coated at 2 μg/mL, antibody at 10 ng/mL"}, "[4]": {"molecular_target": "T2, HPV31 VLP", "assay": "double-antibody sandwich ELISA, R001 as capture and HRP-R001 as detection, mixture of HPV types"}, "[5]": {"molecular_target": "T4, HPV35 VLP (Human papillomavirus type 35, UniProt P27232 1-502)", "T4 construct": "also called HPV35完整VLP蛋白", "T4 sequence": "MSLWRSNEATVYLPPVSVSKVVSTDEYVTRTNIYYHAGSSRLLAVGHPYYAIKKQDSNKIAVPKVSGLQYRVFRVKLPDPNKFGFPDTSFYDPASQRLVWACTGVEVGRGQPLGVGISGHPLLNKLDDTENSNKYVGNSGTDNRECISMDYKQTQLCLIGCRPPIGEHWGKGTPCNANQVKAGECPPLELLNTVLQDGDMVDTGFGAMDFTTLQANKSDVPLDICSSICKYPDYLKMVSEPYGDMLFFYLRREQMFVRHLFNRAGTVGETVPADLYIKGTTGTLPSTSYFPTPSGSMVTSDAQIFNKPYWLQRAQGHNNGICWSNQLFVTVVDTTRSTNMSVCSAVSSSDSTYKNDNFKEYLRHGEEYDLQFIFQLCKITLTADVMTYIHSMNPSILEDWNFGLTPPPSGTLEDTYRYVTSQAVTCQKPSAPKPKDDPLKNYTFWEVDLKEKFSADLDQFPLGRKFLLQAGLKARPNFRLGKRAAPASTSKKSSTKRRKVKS", "assay": "double-antibody sandwich ELISA, R001 as capture and HRP-R001 as detection, mixture of HPV types"}, "[6]": {"molecular_target": "T5, HPV51 VLP (Human papillomavirus type 51, UniProt P26536 1-504)", "T5 construct": "also called HPV51完整VLP蛋白", "T5 sequence": "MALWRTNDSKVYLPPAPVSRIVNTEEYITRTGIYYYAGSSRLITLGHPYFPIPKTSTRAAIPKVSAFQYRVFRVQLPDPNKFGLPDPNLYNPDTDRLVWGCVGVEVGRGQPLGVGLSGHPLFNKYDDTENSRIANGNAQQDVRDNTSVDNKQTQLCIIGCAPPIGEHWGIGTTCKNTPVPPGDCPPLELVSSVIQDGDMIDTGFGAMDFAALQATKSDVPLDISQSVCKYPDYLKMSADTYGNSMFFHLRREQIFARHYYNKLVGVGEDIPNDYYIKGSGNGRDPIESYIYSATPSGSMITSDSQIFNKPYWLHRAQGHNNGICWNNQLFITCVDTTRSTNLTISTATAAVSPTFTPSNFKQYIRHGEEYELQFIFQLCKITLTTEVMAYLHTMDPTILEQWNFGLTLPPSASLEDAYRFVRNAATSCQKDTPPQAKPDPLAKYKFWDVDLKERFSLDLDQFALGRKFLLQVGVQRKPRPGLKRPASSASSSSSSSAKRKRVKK", "assay": "double-antibody sandwich ELISA, R001 as capture and HRP-R001 as detection, mixture of HPV types"}},
  "data": [
    {"binder": "B1", "values": [
      {"measurement": "OD450-blank", "setting": "[1]", "result": 0.001, "unit": "OD450"},
      {"measurement": "OD450-blank", "setting": "[2]", "result": 0.002, "unit": "OD450"},
      {"measurement": "OD450-blank", "setting": "[3]", "result": 0, "unit": "OD450"},
      {"measurement": "binding result", "setting": "[4]", "result": "no binding (tested: 50ng/mL，25ng/mL，12.5ng/mL)"},
      {"measurement": "binding result", "setting": "[5]", "result": "no binding (tested: 50ng/mL，25ng/mL，12.5ng/mL)"},
      {"measurement": "binding result", "setting": "[6]", "result": "no binding (tested: 50ng/mL，25ng/mL，12.5ng/mL)"}
    ]}
  ]
}
